This is an account of results in publication PMC9613979, “Endothelial alpha globin is a nitrite reductase” (Nature Communications, 2022).

No end group written: not given here. Alexa Fluor 488 = Alexa Fluor 488 fluorescent dye tag

The experiment deals with T1, recombinant eNOS oxygenase domain.
T1 chain: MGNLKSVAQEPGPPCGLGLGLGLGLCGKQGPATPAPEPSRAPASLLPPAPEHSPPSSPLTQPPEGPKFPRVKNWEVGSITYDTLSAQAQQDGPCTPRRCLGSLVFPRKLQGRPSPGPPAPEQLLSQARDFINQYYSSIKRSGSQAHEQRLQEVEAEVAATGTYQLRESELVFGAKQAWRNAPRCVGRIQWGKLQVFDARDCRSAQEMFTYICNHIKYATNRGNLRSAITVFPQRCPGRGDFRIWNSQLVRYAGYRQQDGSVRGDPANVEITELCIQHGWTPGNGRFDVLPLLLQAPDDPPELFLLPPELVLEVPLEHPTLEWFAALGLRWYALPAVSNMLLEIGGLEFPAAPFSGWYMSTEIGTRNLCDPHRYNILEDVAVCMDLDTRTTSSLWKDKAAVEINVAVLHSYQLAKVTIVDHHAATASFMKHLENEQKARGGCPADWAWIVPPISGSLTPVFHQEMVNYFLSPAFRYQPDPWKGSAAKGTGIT
In words: fluorescence polarisation; 1 μM recombinant oxygenase domain of eNOS incubated with peptide labelled with Alexa Fluor 488 at the C-terminus; SpectraMax M5 plate reader; triplicate measurements per concentration. The conditions noted are these: both partners purified. In general terms: In fluorescence polarisation assays a small probe gives low polarisation when free and higher when bound to something large.

By Kd is commonly meant the free concentration of one partner at which half of the binding sites on the other are occupied at equilibrium, for simple one-to-one binding. For LSFPTTKTYF-{Alexa Fluor 488} (source: synthetic peptide (AnaSpec)) [alpha globin mimetic peptide (alpha globin binding sequence LSFPTTKTYF)], the Kd was determined as 16.8 nM.
